Laboratory results reported in the supplement of paper PMC9170038.

System: MS2 coat protein
Experiment: apparent KD of MS2 coat protein; designed switch direction (-1 OFF switch, 1 ON switch): -1; higher = weaker reporter binding
Outline: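 For each design, the apparent KD is the median over clusters of curves fitted to normalised cluster fluorescence. Clusters held RNA switches with common flanks, transcribed on Illumina chips by stalled E. coli RNA polymerase. These were titrated with SNAP-549-labelled MS2 coat protein, doubling from 0.7 or 1.5 nM to 3 µM, without input, with 200 uM small-molecule ligand, or with an oligonucleotide input.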

[1] = Eterna round: R95, input ligand: microRNA oligo, concentration not stated
[2] = input ligand: microRNA oligo, concentration not stated
[3] = Eterna round: R95, input ligand: FMN 200 uM
[4] = Eterna round: R95, input ligand: none

Sequence | apparent KD of MS2 coat protein [1] [nM] | apparent KD of MS2 coat protein (input ligand: FMN 200 uM) [nM] | apparent KD of MS2 coat protein [2] [nM] | apparent KD of MS2 coat protein (input ligand: none) [nM] | apparent KD of MS2 coat protein [3] [nM] | apparent KD of MS2 coat protein [4] [nM]
CUACUCGUUGUGAGGAUAUCGUUUUCGUCACGGAUCGAGAAGGCACAUGAGGAUCACCCAUGUUUGAUGUGGAU [JR_BMOE4_Sub091] (puzzle: Brourd's mod of Exclusion 4) | 30.9 | – | – | – | – | –
CUACUGUGAGGAUAUGGUGAGUAGUGCCUGAGCGCUGCUCACCAGAAGGCACAUGAGGAUCACCCAUGUAUGAC [JL-ex4-2.03 denovo] (puzzle: Exclusion 4) | 43.5 | – | – | – | – | –
CUAGCGAUUGUAGGAUAUCGGACUGUUUCAGUCUGAGAAGGACAUGAGGAUCACCCAUGUGAAGCAACGUGAGUUGCACGCUAG [JL ENG1 3.83] (Eterna round: R96, puzzle: Exclusion NG 1) | – | 47.9 | 13.8 | 22 | – | –
CUAGCGGGUGUAGGAUAUCGGACUGUUUCAGUCUGAGAAGGACAUGAGGAUCACCCAUGUAUUGCUGCGUGAGUAGCACGCUAG [JL ENG1 3.98] (Eterna round: R96, puzzle: Exclusion NG 1) | – | 46.8 | 23.4 | 34.1 | – | –
CUAGUAUAUCAGGAUAUGAUUUUGUGUAGUUAAUCAGAAGGGAUGACAUGAGGAUCACCCAUGUUAAGGGAUGA [JR_Ex6_Sub046] (Eterna round: R97, puzzle: Exclusion 6) | – | 324 | – | 83.3 | – | –
CUAGUCCGAGGAUAUAUUAUGUGAUACAUGAGGAUCACCCAUGUUAUAUGAUGGAUGUUAGUAGAAGGCGGACUAG [Mat - Exclusion 5 - JL mod - D81] (puzzle: Exclusion 5) | 96.6 | – | – | – | 86.3 | 79.3
CUAUAGUCAGGAUAUCUAAACAGGCCGAGCGUUCGCAGUCGAGAGAAGGGACAUGAGGAUCACCCAUGUCCUCC [Eternabot (L1) Solution 6] (Eterna round: R97, puzzle: Exclusion 4) | – | 15.2 | – | 15.6 | – | –
CUAUGUGAUUAGGAUAUUACUGGGCUAUCGCCUUGAGAAGGAGUUACAUGAGGAUCACCCAUGUCAACGCGACC [Eternabot (L2) Solution 44] (Eterna round: R97, puzzle: Exclusion 6) | – | 17.8 | – | 19.1 | – | –
CUAUGUGCGAGAGGAUAUCGUGUACAAAGUACACGAGAAGGCUUCACAUGAGGAUCACCCAUGUACCGAGGUGAAACACCUUGA [Omei Exc(NG)1 Bv6] (Eterna round: R96, puzzle: Exclusion NG 1) | – | 744 | 261 | 510 | – | –
CUAUUGGCAGGAUAUGCUUUUUUAGACAUGAGGAUCACCCAUGUGAUGAAUUUUGGGUUUGCAGAAGGGCCUGAGU [JR_E5_Sub038] (puzzle: Exclusion 5) | 56.6 | – | – | – | – | –
CUCAAACAUGAGGAUCACCCAUGUCAGGAUAUGAUACUAUGUACUUCGGUACAUAGUAUCAGAAGGGAUAUGAA [Ex1-3: 66] (puzzle: Exclusion 1) | 69.3 | – | – | – | – | –
CUCAAGUUAGGAUAUCCAAACGACACGUGCGGACGUUCAACGGAGAAGGGACUUGAGGAUCACCCAAGUUAAAA [Riusbireis] (Eterna round: R97, puzzle: Exclusion 4) | – | 137 | – | 45 | – | –
CUCACGCUCGAGGAUAUCGCACAAAACAAUCAACGAGAAGGCGAGACAUGAGGAUCACCCAUGUGUGGUCAAGA [Ceceed] (Eterna round: R97, puzzle: Exclusion 6) | – | 80.9 | – | 590 | – | –
CUCAUGCCUGAGGAUAUGCUGUACAAAAGUACUGCAGAAGGUGGAACAUGAGGAUCACCCAUGUGGCGAAAGCC [Omei Ex G4] (Eterna round: R97, puzzle: Exclusion 6) | – | 253 | – | 66.1 | – | –
CUCAUUCGAGGAUAUGCAGAAUGGGUCCAAUCAUAAGACAUACAUGAGGAUCACCCAUGUAGAAGGCGGCCAUC [Eternabot (L1) Solution 59] (Eterna round: R97, puzzle: Exclusion 2) | – | 26 | – | 25.6 | – | –
CUCCGGCGUGUAGGAUAUGGAUCCGAUUAGGAUCCAGAAGGACAUGAGGAUCACCCAUGUACAUGUAAACAGUCAUCACCGGAC [salish99_ExNG1_r04_204] (Eterna round: R96, puzzle: Exclusion NG 1) | – | 155 | 10.4 | 18.7 | – | –
CUCCGGCGUGUAGGAUAUGGAUCCGAUUAGGAUCCAGAAGGACAUGAGGAUCACCCAUGUACAUGUAAACGGUCGUCACCGGGC [salish99_ExNG1_r04_207] (Eterna round: R96, puzzle: Exclusion NG 1) | – | 134 | 26.2 | 61.3 | – | –

Sequence | apparent KD of MS2 coat protein [1] [nM] | apparent KD of MS2 coat protein (input ligand: FMN 200 uM) [nM] | apparent KD of MS2 coat protein [2] [nM] | apparent KD of MS2 coat protein (input ligand: none) [nM] | apparent KD of MS2 coat protein [3] [nM] | apparent KD of MS2 coat protein [4] [nM]
CUCCUCAUGACGCCUAAACACAUGAGGAUCACCCAUGUACAGGCUUUUUGUCGUCUUAUAAUAAAACCGAGGAUACG [Orlaorusti] (Eterna round: R96, puzzle: Sensor v3, turn-off variant 1) | – | 17.8 | 52.2 | 23.2 | – | –
CUCCUCAUGACGCCUAAACACAUGAGGAUCACCCAUGUACAGGCUUUUUGUCGUCUUAUAAUAAAACCGAGGAUACG [Orlaorusti] (puzzle: Sensor v3, turn-off variant 1) | 116 | – | – | – | 20.2 | 23.2
CUCGUGCAGCAAAGCUGUACGAGUACAUGAGGAUCACCCAUGUAGGAUAUGGUACGCAAAGCGUGCCAGAAGGACGUGCGUUAG [Mat - Exclusion NG 3 - Mod of JL - D94] (Eterna round: R96, puzzle: Exclusion NG 3) | – | 92.5 | 19.5 | 49.7 | – | –
CUCUAGUCAGGAUAUUAGUUGCCACCUGGACACAGGCGGCAUGAGAAGGGACUUGAGGAUCACCCAAGUAAAAG [Quaesbe] (Eterna round: R97, puzzle: Exclusion 4) | – | 384 | – | 758 | – | –
CUCUCGCGAGGAUAUGAUUUAAGUAACAUGAGGAUCACCCAUGUUUUUCCGUUGUUAUGUUCAGAAGGCGCGUGAU [JR_E5_Sub022] (puzzle: Exclusion 5) | 38.8 | – | – | – | – | –
CUGAACCCGGUAGGAUAUAUUGUGGGCAAGCAUGGAACAACAUGAGGAUCACCCAUGUAAUUUAGGUAGAAGGGCCAAAAGAUU [Excl-NG2-LRO08] (Eterna round: R96, puzzle: Exclusion NG 2) | – | 56.8 | 52.7 | 55.3 | – | –
CUGAGCUGACGGAGAUCCAACAUGAGGAUCACCCAUGUCUCAAAAGCUUUUUGCUCGUCUUAUCCUCCUCAGUUCAC [Mat - Sensor, turn-off var - Eli Mod - D55] (Eterna round: R97, puzzle: Sensor, turn-off variant 1) | – | 26.5 | – | 22.6 | – | –
CUGAGCUGAGGAUAUACAUGAGGAUCACCCAUGUUAAGCAGCUUGCGUAAAAGCAGAUGUAGAAGGCAGUUCGG [Mod of JL 18 - Jieux - Exclusion 3] (Eterna round: R97, puzzle: Exclusion 3) | – | 18.1 | – | 13.7 | – | –
CUGAGGUAGCGGUCCUAUGACAUGAGGAUCACCCAUGUACCUUGCUACGAGCUUUUUGCUCGUCUUAUAAUUCUCGG [JL Atriat mod 3] (puzzle: Sensor v3, turn-off variant 1) | 91.5 | – | – | – | 466 | 526
CUGAGGUAGCGGUCCUAUUACAUGAGGAUCACCCAUGUACCUUGCUUCGAGCUUUUAGCUCGUCUUAUGAUUCUCGG [Mat - Sensor v3 - turn-off var 1 - JL Mod - D38] (puzzle: Sensor v3, turn-off variant 1) | 447 | – | – | – | 277 | 381
CUGAGUAGUCAGGAUAUGCUGUACAAAAGUACAGCAGAAGGGAUUACAUGAGGAUCACCCAUGUGUACUUCAUG [)mei Ex6 B20] (Eterna round: R97, puzzle: Exclusion 6) | – | 401 | – | 184 | – | –
CUGAUGUGAGGAUAUCUACGCCAAGUGUUUCACUUGGCGCAAGAGAAGGCACAUGAGGAUCACCCAUGUACUUC [jl-ex4-4.37 ViennaUCT mod] (Eterna round: R97, puzzle: Exclusion 4) | – | 137 | – | 22.8 | – | –
CUGCUCCGUGUAGGAUAUCCGUGCAACCAAUACGGAGAAGGACAUGAGGAUCACCCAUGUAUGUUAUUAUCACGUGAAGCGUCC [Design 24] (Eterna round: R96, puzzle: Exclusion NG 1) | – | 23.1 | 17 | 24.3 | – | –
CUGCUCCGUGUAGGAUAUGCAUACUCCCAUUAUGCAGAAGGACAUGAGGAUCACCCAUGUAUGUUAUUAUCAUGUGUUGCAUGC [Design 11] (Eterna round: R96, puzzle: Exclusion NG 1) | – | 164 | 33.9 | 37.3 | – | –
CUGCUCCGUGUAGGAUAUGCAUAUUCCCAUUAUGCAGAAGGACAUGAGGAUCACCCAUGUAUGUUAUUAUCAUGUGUUACAUGC [Design 9] (Eterna round: R96, puzzle: Exclusion NG 1) | – | 203 | 24.9 | 33.2 | – | –
CUGCUGGAGCGUCGCUUUGGUCGUACAUGAGGAUCACCCAUGUAGGAUAUGGUAAAAUUCGCCUGCUAGAAGGAUAGAGUGGUC [salish99_ExNG3_r04_618] (Eterna round: R96, puzzle: Exclusion NG 3) | – | 142 | 93.6 | 78.9 | – | –
